The labels stand for the following.
B1: CD2-associated protein, residues 1 to 59; numbered along this chain, Q9Y5K6 (parent)
chain: MVDYIVEYDYDAVHDDELTIRVGEIIRNVKKLQEEGWLEGELNGRRGMFPDNFVKEIKR

± gives the uncertainty stated by the source.

This passage reports abundance fitness results from the Human Domainome abundance scans (Beltran et al. 2025).

Variants of B1 are the subject of the series. Put plainly: abundance fitness (aPCA) (normalised: wild type 0, dead -1); higher = more abundant; growth selection in yeast, the domain comes from the species named. Conditions: Homo sapiens.
Consider MVDYIVEYDYDAVHDDELTIRVGEIIRNVKKKQEEGWLEGELNGRRGMFPDNFVKEIKR [L32K], for which the abundance fitness amounted to 0.01 ± 0.15. The same measure for MVDYIVEYDYDAVHDDELTIRVGEIIRNVKKPQEEGWLEGELNGRRGMFPDNFVKEIKR [L32P]: -0.152 ± 0.13. Regarding MVDYIVERDYDAVHDDELTIRVGEIIRNVKKLQEEGWLEGELNGRRGMFPDNFVKEIKR [Y8R], the abundance fitness was found to be 0.097 ± 0.098.

As for MVDYIVELDYDAVHDDELTIRVGEIIRNVKKLQEEGWLEGELNGRRGMFPDNFVKEIKR [Y8L], the abundance fitness is -0.047 ± 0.084. Regarding MVDYIVEQDYDAVHDDELTIRVGEIIRNVKKLQEEGWLEGELNGRRGMFPDNFVKEIKR [Y8Q], the abundance fitness is 0.04 ± 0.12.

For MVDYIVEYDYNAVHDDELTIRVGEIIRNVKKLQEEGWLEGELNGRRGMFPDNFVKEIKR [D11N], the abundance fitness was -0.086 ± 0.17. To MTDYIVEYDYDAVHDDELTIRVGEIIRNVKKLQEEGWLEGELNGRRGMFPDNFVKEIKR [V2T] belongs -0.095 ± 0.2; to MDDYIVEYDYDAVHDDELTIRVGEIIRNVKKLQEEGWLEGELNGRRGMFPDNFVKEIKR [V2D], -0.119 ± 0.22. For the variant MYDYIVEYDYDAVHDDELTIRVGEIIRNVKKLQEEGWLEGELNGRRGMFPDNFVKEIKR [V2Y], the abundance fitness is -0.166 ± 0.22. The same measure for MWDYIVEYDYDAVHDDELTIRVGEIIRNVKKLQEEGWLEGELNGRRGMFPDNFVKEIKR [V2W]: -0.138 ± 0.2; for MEDYIVEYDYDAVHDDELTIRVGEIIRNVKKLQEEGWLEGELNGRRGMFPDNFVKEIKR [V2E]: -0.031 ± 0.096.

Turning to MVDYIVEYDYDAVHDLELTIRVGEIIRNVKKLQEEGWLEGELNGRRGMFPDNFVKEIKR [D16L], the abundance fitness is -0.13 ± 0.076. Take MVDYIVEYDYDAVHDDELTIRVGEIIRNVKKLQEEGWLEGELNGSRGMFPDNFVKEIKR [R45S]: the abundance fitness was -0.07 ± 0.079. The same measure for MVDYIVEYDYDAVHDDELTIRVGEIIRNVKKLQEEGWLEGELNGLRGMFPDNFVKEIKR [R45L]: -0.224 ± 0.11; for MVIYIVEYDYDAVHDDELTIRVGEIIRNVKKLQEEGWLEGELNGRRGMFPDNFVKEIKR [D3I]: -0.453 ± 0.094; for MVSYIVEYDYDAVHDDELTIRVGEIIRNVKKLQEEGWLEGELNGRRGMFPDNFVKEIKR [D3S]: -0.048 ± 0.055. To MVDYIVEYDYDAVHDDELTIRVGEIIRNVKKLQEEGWLEGELNGRRGMFPDNFVKEIQR [K58Q] belongs 0.059 ± 0.43; to MVDYIVEYDYDAVHDDELTIRVGEIIRNVKKLQEEGWLEGELNGRRGMFPDGFVKEIKR [N52G], -0.128 ± 0.17. As to MVDYIVEYDYDAVHDDELTIRVGEIIRNVKKLQEEGWLEGELNHRRGMFPDNFVKEIKR [G44H], the abundance fitness is -0.549 ± 0.3.

With MVDYIVEYDYDAVHDDELTIRVGEIIRNVKKLQEEGWLEGELNRRRGMFPDNFVKEIKR [G44R], the abundance fitness was -0.133 ± 0.32.

Take MVDYIVEYDYDAVRDDELTIRVGEIIRNVKKLQEEGWLEGELNGRRGMFPDNFVKEIKR [H14R]: the abundance fitness turned out to be 0.021 ± 0.091. The same measure for MVDYIVEYDYDAVCDDELTIRVGEIIRNVKKLQEEGWLEGELNGRRGMFPDNFVKEIKR [H14C]: 0.152 ± 0.17; for MVDYIVEYDYDAVLDDELTIRVGEIIRNVKKLQEEGWLEGELNGRRGMFPDNFVKEIKR [H14L]: -0.217 ± 0.093.

For the variant MVDYIVEYDYDAVGDDELTIRVGEIIRNVKKLQEEGWLEGELNGRRGMFPDNFVKEIKR [H14G], the abundance fitness is -0.031 ± 0.087. The same measure for MVDYIVEYDYDAVHDDELTIRVGEIIRHVKKLQEEGWLEGELNGRRGMFPDNFVKEIKR [N28H]: -0.206 ± 0.14. The same measure for MVDYIVEYDYDAVHDDELTIRVGEIIRGVKKLQEEGWLEGELNGRRGMFPDNFVKEIKR [N28G]: -0.025 ± 0.083; for MVDYIVEYDYDAVHDDELTIRVGEIIRNVKKLQEEGWLLGELNGRRGMFPDNFVKEIKR [E39L]: -0.427 ± 0.1; for MVDYIVEYDYDAVHDDELTIRVGEIIRNVKKLQEEGWLIGELNGRRGMFPDNFVKEIKR [E39I]: -0.142 ± 0.17. To MVDYIVEYDYDAVHDDELTIRVGECIRNVKKLQEEGWLEGELNGRRGMFPDNFVKEIKR [I25C] belongs -0.392 ± 0.23; to MVDYIVEYDYDAVHDDELTIRVGEQIRNVKKLQEEGWLEGELNGRRGMFPDNFVKEIKR [I25Q], -0.338 ± 0.13.

Take MVDYSVEYDYDAVHDDELTIRVGEIIRNVKKLQEEGWLEGELNGRRGMFPDNFVKEIKR [I5S]: the abundance fitness was -0.317 ± 0.1. The same measure for MVDYDVEYDYDAVHDDELTIRVGEIIRNVKKLQEEGWLEGELNGRRGMFPDNFVKEIKR [I5D]: -0.556 ± 0.32. To MVDYIVEYDYDAVHDDELTIRVGEIIRNVKKLQEMGWLEGELNGRRGMFPDNFVKEIKR [E35M] belongs -0.189 ± 0.11; to MVDYIVEYDYDAVHDDELTIRVGEIIRNVKKLQENGWLEGELNGRRGMFPDNFVKEIKR [E35N], 0.054 ± 0.11; to MVDYIVEYDYDAVHDDELTIRVGEIIRNVKKLQEGGWLEGELNGRRGMFPDNFVKEIKR [E35G], -0.071 ± 0.061. To MVDYIVEYDYDAVHDDELTIRVGEIIRNVKKLQEEGWLEGELNGRRGMFVDNFVKEIKR [P50V] belongs -0.996 ± 0.28; to MVDYIVEYDYDAVHDDELTIRVGEIIRNVKKLQEEGWLEGELNGRRGMFLDNFVKEIKR [P50L], -0.412 ± 0.11. For MVDYIVAYDYDAVHDDELTIRVGEIIRNVKKLQEEGWLEGELNGRRGMFPDNFVKEIKR [E7A], the abundance fitness was -0.135 ± 0.079. The same measure for MVDYIVLYDYDAVHDDELTIRVGEIIRNVKKLQEEGWLEGELNGRRGMFPDNFVKEIKR [E7L]: -0.004 ± 0.057; for MVDYIVEYDYDAVHDDELTIRVGEIIRNVKKLQEEGWLEGELNGRRGMQPDNFVKEIKR [F49Q]: -0.857 ± 0.43. To MVDYIVEYDYDAVHDDELTIRVGEIIRNVKKLQEEGWLEGELNGRRGMMPDNFVKEIKR [F49M] belongs -0.38 ± 0.12. With MVDYIVEYDYDAVHDDELTIRVGEIIRNVKKLQEEGWLEGELNGRRGMPPDNFVKEIKR [F49P], the abundance fitness was -0.877 ± 0.3.

Turning to MVDYIVEYDYDAVHDDELTIRVGFIIRNVKKLQEEGWLEGELNGRRGMFPDNFVKEIKR [E24F], the abundance fitness is -0.338 ± 0.26. Take MVDYIVEYDYDAVHDDELTARVGEIIRNVKKLQEEGWLEGELNGRRGMFPDNFVKEIKR [I20A]: the abundance fitness was -0.546 ± 0.14. With MVDYIVEYDYDAVHDDELTIRVGEIIRNVKKLQEEGWLEGELNGRRGMFPDNFVKEIKW [R59W], the abundance fitness is -0.126 ± 0.1.
